Laboratory results taken from the supplement of paper PMC7877785.
± gives the uncertainty stated by the source.

Assay: self-splicing fitness, log relative to wild type (ln ratio); higher = more splicing; Tetrahymena group I intron in knt gene, E. coli kanamycin selection, DiMSum; sequences stand for … in CUCUCU…GGAGGGAAAAGUUAUCAGGCAUGCACCUGGUAGCUAGUCUUUAAACCAAUAGAUUGCAUCGGUUUAAAAGGCAAGACCGUCAAAUUGCGGGAAAGGGGUCAACAGCCGUUCAGUACCAAGUCUCAGGGGAAACUUUGAGAUGGCCUUGCAAAGGGUAUGGUAAUAAGCUGACGGACAUGGUCCUAACCACGCAGCCAAGUCCUAAGUCAACAGAUCUUCUGUUGAUAUGGAUGCAGUUCACAGACUAAAUGUCGGUCGGGGAAGAUGUAUUCUUCUCAUAAGAUAUAGUCGGACCUCUCCUUAAUGGGAGCUAGCGGAUGAAGUGAUGCAACACUGGAGCCGCUGGGAACUAAUUUGUAUGCGAAAGUAUAUUGAUUAGUUUUGGAGUACUCGUGGUCG
Outline: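 A randomised library covering all eight P1ex-region intron nucleotides was built with the intron in the knt kanamycin-resistance gene on pET-22b(+) and held in E. coli BL21(DE3). Cells were grown overnight at 37°C or 30°C on LB agar, with or without 25 μg/mL kanamycin, plus 100 μg/mL carbenicillin, 50 μM IPTG and 0.2% rhamnose, and pooled colonies were amplicon-sequenced on an Illumina HiSeq 2500. DiMSum fitness is the error-weighted combination of wild-type-normalised replicate fold changes, kanamycin versus none.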

Question: With GAUGAGCAAUAUUACGACUU as the sequence, how does the “self-splicing fitness (ln)” value (30 °C) read?
Answer: -0.252 ± 0.071

Question: And the “self-splicing fitness (ln)” value (37 °C)?
Answer: 0.118 ± 0.089

Question: With GAGGAGCAAUAUUACGCUUC as the sequence, how does the “self-splicing fitness (ln)” value (37 °C) read?
Answer: -3.68 ± 0.46

Question: Which “self-splicing fitness (ln)” value (30 °C) does the source give for ACUCAGCAAUAUUACGGUGA here?
Answer: -2.73 ± 0.12

Question: What about the “self-splicing fitness (ln)” value (37 °C) of the same sequence?
Answer: -1.23 ± 0.095

Question: Which “self-splicing fitness (ln)” value (30 °C) does the source give for AAACAGCAAUAUUACGAGCC here?
Answer: -2.55 ± 0.2

Question: And the “self-splicing fitness (ln)” value (37 °C)?
Answer: -1.75 ± 0.3

Question: With AUAGAGCAAUAUUACGUAGG as the sequence, how does the “self-splicing fitness (ln)” value (30 °C) read?
Answer: -2.32 ± 0.18

Question: And the “self-splicing fitness (ln)” value (37 °C)?
Answer: -2.65 ± 0.38

Question: With GCUUAGCAAUAUUACGGAGC as the sequence, how does the “self-splicing fitness (ln)” value (30 °C) read?
Answer: -2.97 ± 0.19

Question: What about the “self-splicing fitness (ln)” value (37 °C) of the same sequence?
Answer: -2.57 ± 0.41

Question: Which “self-splicing fitness (ln)” value (30 °C) does the source give for CAUGAGCAAUAUUACGAUGG here?
Answer: -1.36 ± 0.1

Question: And the “self-splicing fitness (ln)” value (37 °C)?
Answer: -0.83 ± 0.13

Question: For UAAGAGCAAUAUUACGGUAA, which “self-splicing fitness (ln)” value (30 °C) is on record?
Answer: -2.55 ± 0.21

Question: And the “self-splicing fitness (ln)” value (37 °C)?
Answer: -3.19 ± 0.28

Question: For CUGCAGCAAUAUUACGGGUA, which “self-splicing fitness (ln)” value (30 °C) is on record?
Answer: -3.32 ± 0.4

Question: And the “self-splicing fitness (ln)” value (37 °C)?
Answer: -0.797 ± 0.14

Question: With GAUUAGCAAUAUUACGAUAC as the sequence, how does the “self-splicing fitness (ln)” value (30 °C) read?
Answer: -1.24 ± 0.19

Question: And the “self-splicing fitness (ln)” value (37 °C)?
Answer: -0.415 ± 0.18

Question: For CGCUAGCAAUAUUACGUACU, which “self-splicing fitness (ln)” value (30 °C) is on record?
Answer: -2.86 ± 0.15

Question: What about the “self-splicing fitness (ln)” value (37 °C) of the same sequence?
Answer: -0.0116 ± 0.18

Question: What does the source list for UGCCAGCAAUAUUACGUGUC?
Answer: self-splicing fitness (ln) (30 °C): -3.01 ± 0.19; self-splicing fitness (ln) (37 °C): -1.04 ± 0.13

Question: For CGAUAGCAAUAUUACGCUAG, which “self-splicing fitness (ln)” value (30 °C) is on record?
Answer: -1.18 ± 0.1

Question: What about the “self-splicing fitness (ln)” value (37 °C) of the same sequence?
Answer: -1.52 ± 0.19

Question: With GCGUAGCAAUAUUACGAACC as the sequence, how does the “self-splicing fitness (ln)” value (37 °C) read?
Answer: -1.63 ± 0.36

Question: For GCCGAGCAAUAUUACGUCGA, which “self-splicing fitness (ln)” value (30 °C) is on record?
Answer: -2.36 ± 0.2

Question: What about the “self-splicing fitness (ln)” value (37 °C) of the same sequence?
Answer: -0.182 ± 0.14

Question: With AUAUAGCAAUAUUACGGUCA as the sequence, how does the “self-splicing fitness (ln)” value (30 °C) read?
Answer: -1.16 ± 0.23

Question: And the “self-splicing fitness (ln)” value (37 °C)?
Answer: -0.947 ± 0.19

Question: Which “self-splicing fitness (ln)” value (30 °C) does the source give for AUGAAGCAAUAUUACGUUUU here?
Answer: -2.36 ± 0.12

Question: What about the “self-splicing fitness (ln)” value (37 °C) of the same sequence?
Answer: -1.7 ± 0.15

Question: For UCCGAGCAAUAUUACGCUAU, which “self-splicing fitness (ln)” value (30 °C) is on record?
Answer: -2.09 ± 0.24

Question: What about the “self-splicing fitness (ln)” value (37 °C) of the same sequence?
Answer: -3.2 ± 0.33

Question: With GCAGAGCAAUAUUACGCUUU as the sequence, how does the “self-splicing fitness (ln)” value (37 °C) read?
Answer: -3.01 ± 0.27

Question: What does the source list for GUGAAGCAAUAUUACGUUGA?
Answer: self-splicing fitness (ln) (30 °C): -1.56 ± 0.078; self-splicing fitness (ln) (37 °C): -0.398 ± 0.093

Question: For CCUUAGCAAUAUUACGAAAU, which “self-splicing fitness (ln)” value (30 °C) is on record?
Answer: -3.26 ± 0.29

Question: What about the “self-splicing fitness (ln)” value (37 °C) of the same sequence?
Answer: -2.12 ± 0.31

Question: With ACUAAGCAAUAUUACGGGUU as the sequence, how does the “self-splicing fitness (ln)” value (30 °C) read?
Answer: -3.17 ± 0.16

Question: And the “self-splicing fitness (ln)” value (37 °C)?
Answer: -2.34 ± 0.23

Question: For CGAAAGCAAUAUUACGUAGU, which “self-splicing fitness (ln)” value (30 °C) is on record?
Answer: -3.2 ± 0.098

Question: What about the “self-splicing fitness (ln)” value (37 °C) of the same sequence?
Answer: -2.77 ± 0.13

Question: With UUUCAGCAAUAUUACGUCCU as the sequence, how does the “self-splicing fitness (ln)” value (30 °C) read?
Answer: -2.99 ± 0.42

Question: And the “self-splicing fitness (ln)” value (37 °C)?
Answer: -1.32 ± 0.28

Question: For CCGUAGCAAUAUUACGUAAU, which “self-splicing fitness (ln)” value (30 °C) is on record?
Answer: -4.17 ± 0.26

Question: And the “self-splicing fitness (ln)” value (37 °C)?
Answer: -1.96 ± 0.26

Question: Which results are given for ACGCAGCAAUAUUACGAGCC?
Answer: self-splicing fitness (ln) (30 °C): -2.97 ± 0.2; self-splicing fitness (ln) (37 °C): -1.84 ± 0.17

Question: Which “self-splicing fitness (ln)” value (30 °C) does the source give for ACCUAGCAAUAUUACGGCGG here?
Answer: -1.36 ± 0.12

Question: What about the “self-splicing fitness (ln)” value (37 °C) of the same sequence?
Answer: -1.6 ± 0.14

Question: Which results are given for GAACAGCAAUAUUACGGCUA?
Answer: self-splicing fitness (ln) (30 °C): -0.474 ± 0.077; self-splicing fitness (ln) (37 °C): -0.117 ± 0.084

Question: Which results are given for GGAUAGCAAUAUUACGCAGA?
Answer: self-splicing fitness (ln) (30 °C): -2.53 ± 0.25; self-splicing fitness (ln) (37 °C): -1.58 ± 0.21

Question: Which “self-splicing fitness (ln)” value (30 °C) does the source give for CUAGAGCAAUAUUACGGGAA here?
Answer: -4.25 ± 0.35

Question: And the “self-splicing fitness (ln)” value (37 °C)?
Answer: -2.45 ± 0.45

Question: With CAUUAGCAAUAUUACGAAGC as the sequence, how does the “self-splicing fitness (ln)” value (30 °C) read?
Answer: -2.81 ± 0.32

Question: What about the “self-splicing fitness (ln)” value (37 °C) of the same sequence?
Answer: -2.44 ± 0.49

Question: What does the source list for GUGGAGCAAUAUUACGGUGC?
Answer: self-splicing fitness (ln) (30 °C): -2.76 ± 0.24; self-splicing fitness (ln) (37 °C): -1.93 ± 0.25

Question: With AUCAAGCAAUAUUACGCAAA as the sequence, how does the “self-splicing fitness (ln)” value (30 °C) read?
Answer: -2.96 ± 0.2

Question: And the “self-splicing fitness (ln)” value (37 °C)?
Answer: -1.67 ± 0.15

Question: Which “self-splicing fitness (ln)” value (30 °C) does the source give for ACACAGCAAUAUUACGACUG here?
Answer: -0.972 ± 0.047

Question: What about the “self-splicing fitness (ln)” value (37 °C) of the same sequence?
Answer: -0.67 ± 0.06

Question: For AUCGAGCAAUAUUACGAACC, which “self-splicing fitness (ln)” value (30 °C) is on record?
Answer: -0.925 ± 0.36

Question: What about the “self-splicing fitness (ln)” value (37 °C) of the same sequence?
Answer: -0.838 ± 0.4

Question: Which results are given for AACAAGCAAUAUUACGUAUG?
Answer: self-splicing fitness (ln) (30 °C): -3.33 ± 0.12; self-splicing fitness (ln) (37 °C): -1.85 ± 0.1

Question: For GAAAAGCAAUAUUACGACAA, which “self-splicing fitness (ln)” value (30 °C) is on record?
Answer: -0.627 ± 0.084

Question: And the “self-splicing fitness (ln)” value (37 °C)?
Answer: -0.496 ± 0.096

Question: Which results are given for CAUUAGCAAUAUUACGACAG?
Answer: self-splicing fitness (ln) (30 °C): 0.268 ± 0.06; self-splicing fitness (ln) (37 °C): 0.168 ± 0.071
